Experimental data published in patent US20200155571A1, “Topically Active Steroids for Use in Radiation and Chemotherapeutics Injury” (Soligenix, Inc., priority 2008, published 2020).

What was measured:
[1] = rats, cited from earlier work
[2] = 17-BMP after BDP administration, estimated; cited from earlier work
[3] = cited from earlier work
glucocorticoid receptor = target: T1, glucocorticoid receptor (Homo sapiens, UniProt P04150); settings: as fraction of the binding affinity of dexamethasone; cited from earlier work
T1 sequence (P04150 1-777): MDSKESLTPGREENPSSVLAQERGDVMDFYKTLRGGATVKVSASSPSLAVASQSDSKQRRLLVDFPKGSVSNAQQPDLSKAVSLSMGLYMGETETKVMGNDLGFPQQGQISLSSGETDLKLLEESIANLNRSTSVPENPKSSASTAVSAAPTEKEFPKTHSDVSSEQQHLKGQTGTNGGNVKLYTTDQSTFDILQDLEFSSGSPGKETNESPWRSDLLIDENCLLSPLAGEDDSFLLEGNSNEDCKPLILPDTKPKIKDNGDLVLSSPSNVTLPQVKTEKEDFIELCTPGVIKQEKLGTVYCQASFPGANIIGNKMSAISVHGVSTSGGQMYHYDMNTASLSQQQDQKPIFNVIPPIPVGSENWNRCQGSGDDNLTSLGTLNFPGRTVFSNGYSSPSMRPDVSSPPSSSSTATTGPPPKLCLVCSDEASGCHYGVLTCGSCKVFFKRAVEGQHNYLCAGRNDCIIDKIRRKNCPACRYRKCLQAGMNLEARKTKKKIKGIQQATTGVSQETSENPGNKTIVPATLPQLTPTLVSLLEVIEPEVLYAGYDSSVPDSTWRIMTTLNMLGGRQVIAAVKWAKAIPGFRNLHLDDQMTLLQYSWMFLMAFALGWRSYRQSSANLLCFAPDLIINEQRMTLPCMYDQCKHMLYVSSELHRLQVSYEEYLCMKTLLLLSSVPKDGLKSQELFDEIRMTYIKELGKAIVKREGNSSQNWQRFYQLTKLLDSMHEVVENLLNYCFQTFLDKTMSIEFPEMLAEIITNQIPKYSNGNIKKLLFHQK

[4] = tested on: dogs given high dose total body irradiation (TBI); assay: Survival of dogs after high dose TBI (GI radiation syndrome) with autologous marrow and supportive care; type: in vivo, dog; settings: TBI dose giving >80% lethality; monitored up to 30 days; KGF 100 μg/kg/day iv or BDP 4 mg/day from 2 hours after TBI until GI recovery
Description: The dog is a particularly suitable animal model for studying radiations damage to epithelial tissue. […] To evaluate the response to TBI given at the high dose rate of 0.4 Gy/min or 0.7 Gy/min, treatment groups were given single-fraction 6, 7, 8 or 10 Gy TBI and received previously cryopreserved autologous marrow infusion upon completion of the TBI and standard supportive care. At doses of TBI below 8 Gy, all dogs survived. After 8 Gy TBI, 5 of 9 dogs died and after 10 Gy TBI, 9 of 9 dogs died from GI radiation syndrome. All deaths occurred between days 4 to day 6 after 10 Gy TBI. All deaths were attributable due to GI radiation toxicity with severe gut hemorrhage and intestinal crypt damage, as well as denudation of gut epithelium and focal necrosis in the intestines. Despite antibiotic treatment, blood cultures obtained near the time of death were positive for gram negative organisms in 4 dogs, consistent with entry of pathogens through the GI tract. […]
Dogs were monitored for survival up to 30 days after initiation of TBI (primary endpoint of the experiment). […] Dogs were also followed with daily CBCs until recovery and assessed for immune function recovery. […]

[5] = tested on: oral mucositis after high-dose radiation; settings: cited from earlier work
non-irradiated dogs = assay: rhKGF in non-irradiated dogs, necropsy of gut; type: in vivo, dog; settings: rhKGF 100 μg/kg/day for 14 and 21 days
Protocol: Three non-irradiated dogs were given rhKGF 100 μg/kg/day for 7, 14 and 21 days, respectively. Twenty-four hours after the last dose of KGF, dogs were euthanized and underwent complete necropsy.

[6] = tested on: dogs given total body irradiation (TBI); assay: Survival and hematopoietic recovery of dogs after TBI with cytokine treatment; type: in vivo, dog
Protocol: Supportive care consisted of the following: (a) intravenous antibiotics, ampicillin and amikacin and oral nonreabsorbable polymixin/neomycin administered without change in drug regimen until recovery of absolute neutrophil count (ANC)>1000/μL; (b) transfusions with irradiated whole blood (50 mL blood per transfusion) for platelet counts below 10,000/μL; and (c) subcutaneous fluids 20 ml/kg given daily for the first 5 days after TBI.
After TBI exposure, all dogs were treated with an oral fluoroquinolone, enrofloxacin. Core body temperature was measured at least twice daily. If fever developed or when ANC falls below <100/μL, dogs are empirically treated with the combination of intravenous third-generation cephalosporin (ceftazidime) and the aminoglycoside amikacin. Blood cultures are obtained when dogs develop fever and antibiotic treatment is adjusted based on blood culture results. If blood culture negative neutropenic fever persists for 48 hours, or if clinical condition objectively worsens, additional empiric antibiotic treatment with metronidazole and vancomycin is added. Although the new antibiotic regimen is more complicated compared with the historical treatment, it reflects improved broad spectrum coverage against gram negative, gram positive and anaerobic pathogens. Furthermore, blood transfusion support is more intensive now with larger volume of whole blood transfusion, based on body weight with 10-15 mL blood/kg/transfusion. The use of intravenous fluid support (10-30 mL/kg/day Lactated Ringers solution) is extended for at least 14 additional days until there is full recovery of oral food intake.
New supportive care measures have shown a significant improvement in survival after TBI. Following 4 Gy TBI (0.07 Gy/min, Varian Clinac 4/80 linear accelerator source), 4 of 4 dogs survived and recovered hematopoiesis with a median time to ANC and platelet recovery of 27 and 41 days, respectively. ANC recovery was defined as the first day of sustained neutrophil counts >500/μL and platelet recovery was defined as the first day of transfusion-independent sustained recovery of >40,000/μL. After 5 Gy TBI, 3 of 6 dogs survived with supportive care only. Deaths occurred at days 14, 15 and 21, respectively, after TBI and were due to neutropenic sepsis or pneumonia and not from the GI radiation syndrome. Among surviving dogs, the median time to ANC and platelet recovery was 29 and 44 days, respectively. After 6 Gy TBI, 5 of 6 dogs survived given supportive care only. One death occurred on day 22 due to neutropenic sepsis. The median time to ANC and platelet recovery was 34 and 74 days, respectively. After 7 Gy TBI and supportive care only, 5 of 6 dogs survived, with one death on day 22 due to neutropenic sepsis. […] As of Apr. 18, 2007, the remaining three dogs in this cohort remain transfusion-dependent at 66 to 95 days after TBI. […] Because of the improved survival of dogs after TBI given optimal supportive care in the current AI-066498 studies, we have not yet reached the 99% lethal dose of TBI threshold.
Although supportive care without cytokine support results in improved survival, cytokine treatment given after TBI aimed at recovery of the hematopoietic system also improves outcome and decreased the need for prolonged, intensive (and expensive) supportive care. Historical results in the dog model by our research group included studies which established that both recombinant canine (rc) and recombinant human (rh) G-CSF given after an otherwise lethal dose of 4 Gy TBI prevented death from radiation induced cytopenia. In the 1980's and early 1990's, after 4 Gy TBI and supportive care alone, only 1 of 28 dogs survived with recovery of hematopoiesis. In contrast, when G-CSF was given daily for 21 days after 4 Gy TBI, 8 of 10 dogs survived. […] These studies helped to establish the current clinical guidelines for the treatment of victims of radiation accidents. […]

Molecule: CCC(=O)O[C@]1(C(=O)CO)[C@@H](C)C[C@H]2[C@@H]3CCC4=CC(=O)C=C[C@]4(C)[C@@]3(Cl)[C@@H](O)C[C@@]21C [17-BMP, 17-beclomethasone mono-propionate]
- presence in plasma following oral administration of 3H-BDP [1]: found in the plasma
- absolute oral bioavailability [2]: 21-41%
- half-life in simulated intestinal fluid [3]: 720 min

Molecule: CCC(=O)OCC(=O)[C@@]1(O)[C@@H](C)C[C@H]2[C@@H]3CCC4=CC(=O)C=C[C@]4(C)[C@@]3(Cl)[C@@H](O)C[C@@]21C [21-BMP]
- glucocorticoid receptor binding affinity, in words (glucocorticoid receptor): no apparent affinity

Molecule: beclomethasone 17,21-dipropionate [BDP]
- survival after TBI [4]: greater than 70%
- half-life of unchanged BDP in plasma ([1]; intravenous administration of 3H-BDP): 3 to 4 min
- presence in plasma following oral administration of 3H-BDP [1]: not detected
- half-life in simulated intestinal fluid [3]: 2.1 min

B1: KGF: keratinocyte growth factor, recombinant human; binds the KGF receptor on epithelial tissues (protein, UniProt P21781 32-194, looked up)
Fibroblast growth factor 7: CNDMTPEQMATNVNCSSPERHTRSYDYMEGGDIRVRRLFCRTQWYLRIDKRGKVKGTQEMKNNYNIMEIRTVAVGIVAIKGVESEFYLAMNKEGKLYAKKECNEDCNFKELILENHYNTYASAKWTHNGGEMFVALNQKGIPVRGKKTKKEQKTAHFLPMAIT
- survival after TBI [4]: ≥ 70%
- duration of mucositis ([5]; rhKGF 60 μg/kg/day for 3 days prior to 12 Gy fractionated TBI and 3 days after autologous PBSC infusion, placebo 10.4 days, p<0.001): 3.4 days
- incidence of febrile neutropenia ([5]; same trial, placebo 46%): 26%
- mean days of febrile neutropenia ([5]; same trial, placebo 4.6 days): 2.6 days
- effect on Peyer's patches in the ileum (non-irradiated dogs): dramatic increase in the size and cellularity of Peyer's patches
- effect on villi in the jejunum (non-irradiated dogs): dramatic increase in size of villi

B2: G-CSF: cytokine granulocyte colony stimulating factor, recombinant canine or human (protein, UniProt P09919 31-207, looked up)
Granulocyte …: TPLGPASSLPQSFLLKCLEQVRKIQGDGAALQEKLVSECATYKLCHPEELVLLGHSLGIPWAPLSSCPSQALQLAGCLSQLHSGLFLYQGLLQALEGISPELGPTLDTLQLDVADFATTIWQQMEELGMAPALQPTQGAMPAFASAFQRRAGGVLVASHLQSFLEVSYRVLRHLAQP
- survival ([6]; 4 Gy TBI, G-CSF daily for 21 days, historical results, supportive care alone 1 of 28): 8 of 10
- survival ([6]; 5 Gy TBI, 10 μg/kg/day starting 2 hours after irradiation, new supportive care): 6 of 6
- survival ([6]; 5 Gy TBI, G-CSF, historical results): 3 of 10
- median time to ANC recovery ([6]; 5 Gy TBI, ANC >500/μL): 20 days
- median time to platelet recovery ([6]; 5 Gy TBI, platelets >40,000/μL): 44 days
- median time to ANC recovery ([6]; 6 Gy TBI): 26 days
- median time to platelet recovery ([6]; 6 Gy TBI): 61 days
- survival ([6]; 6 Gy TBI, G-CSF 10 μg/kg/day, FL 100 μg/kg/day): 5 of 6
